In patent US20090117613A1, “Method for redox reaction using an old yellow enzyme” (priority 2007, published 2009):

B1: YqjM: Homologous OYE from Bacillus subtilis (similarity: 80%), expression clone from TU-Graz (protein, UniProt P54550 2-338, looked up)
NADPH dehydrogenase: ARKLFTPITIKDMTLKNRIVMSPMCMYSSHEKDGKLTPFHMAHYISRAIGQVGLIIVEASAVNPQGRITDQDLGIWSDEHIEGFAKLTEQVKEQGSKIGIQLAHAGRKAELEGDIFAPSAIAFDEQSATPVEMSAEKVKETVQEFKQAAARAKEAGFDVIEIHAAHGYLIHEFLSPLSNHRTDEYGGSPENRYRFLREIIDEVKQVWDGPLFVRVSASDYTDKGLDIADHIGFAKWMKEQGVDLIDCSSGALVHADINVFPGYQVSFAEKIREQADMATGAVGMITDGSMAEEILQNGRADLIFIGRELLRDPFFARTAAKQLNTEIPAPVQYERGW
B2: OPR3: OPR3 (tomato) recombinant OYE, expression clone from TU-Graz (protein, UniProt Q9FEW9 1-396, looked up)
12-oxophytodienoate reductase …: MASSAQDGNNPLFSPYKMGKFNLSHRVVLAPMTRCRALNNIPQAALGEYYEQRATAGGFLITEGTMISPTSAGFPHVPGIFTKEQVREWKKIVDVVHAKGAVIFCQLWHVGRASHEVYQPAGAAPISSTEKPISNRWRILMPDGTHGIYPKPRAIGTYEISQVVEDYRRSALNAIEAGFDGIEIHGAHGYLIDQFLKDGINDRTDEYGGSLANRCKFITQVVQAVVSAIGADRVGVRVSPAIDHLDAMDSNPLSLGLAVVERLNKIQLHSGSKLAYLHVTQPRYVAYGQTEAGRLGSEEEEARLMRTLRNAYQGTFICSGGYTRELGIEAVAQGDADLVSYGRLFISNPDLVMRIKLNAPLNKYNRKTFYTQDPVVGYTDYPFLQGNGSNGPLSRL

Tests used:
[1] = Reduction of carvone to dihydrocarvone; type: biochemical; details: cyclohexenone and carvone as substrates
Method: The sample for the reduction reaction contained: 500 μL protein solution+(+)Carvone (˜1.5 μL)+200 μL GDH 102 (10 mg/mL) and Glucose (200 mM)+100 μL NADPH (10 mM). The final volume of the reaction was 800 μL. The reaction was carried out for 24 h at various temperatures (see table 2).

[2] = Reductase activity using cyclohexenone as substrate; type: biochemical; details: for reductase activity (saturation of cyclohexenone): 30, 50, and 70° C.
Method: (§1) The desaturation reaction was carried out using cyclohexanone with all three enzymes at 30, 50, and 70° C. The reductase activity using cyclohexenone as substrate was also measured under similar conditions.

[3] = Desaturation of cyclohexanone to cyclohex-2-enone and phenol; details: 30, 50, and 70° C.
Method: The reaction sample contained 500 μL protein solution and 10 mM Cyclohexanone (˜1 μL). The final volume of the reaction was ˜500 μL. The reaction was carried out at 70° C. for 24 hours.
as §1

[4] = GkOYE-catalyzed desaturation of testosterone to boldenone (HPLC/MS); type: biochemical; details: 30-70° C., varied in 5° C. increments

Molecule	stereoselectivity of reductase activity [1]	reductase activity (saturation of cyclohexenone) [2]	enone reductase activity ([2]; 70° C.)	desaturation of cyclohexanone [3]	testosterone hydroxylation or desaturation (oxidized testosterone derivative) [4]
B1	comparable to GkOYE	significantly reduced reductase activity	demonstrated	no desaturation was observed	no oxidized testosterone derivative is detected
B2	comparable to GkOYE	almost inactive at 50 °C	–	no desaturation was observed	–
